Target: T1, von Willebrand factor (UniProt P04275 764-2813, limits assumed)
T1 construct: also called vWF
Test: ELISA on coated vWF, bound FVIII detected with chromogenic Coatest SP FVIII reagents; reference value set by definition
Description: All other potencies were calculated in relation to ReFacto AF. […] However, the only significant difference could be detected between Nuwiq and FVIII-19M. The reduced binding, also of FVIII-6rs, might be due to different post-translational modifications made by the CAP-T cells. This could be correlated with the reduced sulfation detected in the heavy and light chain in the Western Blot. Missing sulfation might have influenced vWF binding, as especially the sulfation at Y1683 is important for the binding of vWF.
For the detection of the binding of the FVIII constructs to vWF, another ELISA was performed. In this case, vWF was coated to the wells of a 96-well plate at a concentration of 0.1 U/ml. Afterwards the FVIII variants were applied at a concentration of 0.25 U/ml. ReFacto AF was used as a reference. Each sample was furtheron diluted 1:2 in buffer. A total of 7 serial dilutions were performed. […] After addition of the substrate, the plate was immediately put into a plate reader and the development of the chromogenic substrate was measured at 405 nm for 490 seconds. The generated curves were analyzed using the PLA 3.0 software. Potencies of vWF-binding of the different FVIII products were calculated in relation to ReFacto AF.

potency of binding to vWF (relative to ReFacto AF): 1 relative potency
B1: ReFacto AF (other)
chain: ATRRYYLGAVELSWDYMQSDLGELPVDARFPPRVPKSFPFNTSVVYKKTLFVEFTDHLFNIAKPRPPWMGLLGPTIQAEVYDTVVITLKNMASHPVSLHAVGVSYWKASEGAEYDDQTSQREKEDDKVFPGGSHTYVWQVLKENGPMASDPLCLTYSYLSHVDLVKDLNSGLIGALLVCREGSLAKEKTQTLHKFILLFAVFDEGKSWHSETKNSLMQDRDAASARAWPKMHTVNGYVNRSLPGLIGCHRKSVYWHVIGMGTTPEVHSIFLEGHTFLVRNHRQASLEISPITFLTAQTLLMDLGQFLLFCHISSHQHDGMEAYVKVDSCPEEPQLRMKNNEEAEDYDDDLTDSEMDVVRFDDDNSPSFIQIRSVAKKHPKTWVHYIAAEEEDWDYAPLVLAPDDRSYKSQYLNNGPQRIGRKYKKVRFMAYTDETFKTREAIQHESGILGPLLYGEVGDTLLIIFKNQASRPYNIYPHGITDVRPLYSRRLPKGVKHLKDFPILPGEIFKYKWTVTVEDGPTKSDPRCLTRYYSSFVNMERDLASGLIGPLLICYKESVDQRGNQIMSDKRNVILFSVFDENRSWYLTENIQRFLPNPAGVQLEDPEFQASNIMHSINGYVFDSLQLSVCLHEVAYWYILSIGAQTDFLSVFFSGYTFKHKMVYEDTLTLFPFSGETVFMSMENPGLWILGCHNSDFRNRGMTALLKVSSCDKNTGDYYEDSYEDISAYLLSKNNAIEPRSFSQNPPVLKRHQREITRTTLQSDQEEIDYDDTISVEMKKEDFDIYDEDENQSPRSFQKKTRHYFIAAVERLWDYGMSSSPHVLRNRAQSGSVPQFKKVVFQEFTDGSFTQPLYRGELNEHLGLLGPYIRAEVEDNIMVTFRNQASRPYSFYSSLISYEEDQRQGAEPRKNFVKPNETKTYFWKVQHHMAPTKDEFDCKAWAYFSDVDLEKDVHSGLIGPLLVCHTNTLNPAHGRQVTVQEFALFFTIFDETKSWYFTENMERNCRAPCNIQMEDPTFKENYRFHAINGYIMDTLPGLVMAQDQRIRWYLLSMGSNENIHSIHFSGHVFTVRKKEEYKMALYNLYPGVFETVEMLPSKAGIWRVECLIGEHLHAGMSTLFLVYSNKCQTPLGMASGHIRDFQITASGQYGQWAPKLARLHYSGSINAWSTKEPFSWIKVDLLAPMIIHGIKTQGARQKFSSLYISQFIIMYSLDGKKWQTYRGNSTGTLMVFFGNVDSSGIKHNIFNPPIIARYIRLHPTHYSIRSTLRMELMGCDLNSCSMPLGMESKAISDAQITASSYFTNMFATWSPSKARLHLQGRSNAWRPQVNNPKEWLQVDFQKTMKVTGVTTQGVKSLLTSMYVKEFLISSSQDGHQWTLFFQNGKVKVFQGNQDSFTPVVNSLDPPLLTRYLRIHPQSWVHQIALRMEVLGCEAQDLY
